The assay deals with beta-klotho. Kind of assay: cell-based or functional assay.
With MKEDD.hFGF21.L15.hFc (Fc fusion), the EC50 (ELK-luciferase assay) came to 834 nM and the Efficacy (ELK-luciferase assay) is 83.1%.
For “hFc.L15.hFGF21(1-178, L98R, P171G) (Fc fusion)”, the EC50 (ELK-luciferase assay) amounted to 167 nM and the Efficacy (ELK-luciferase assay) worked out at 63.9%.
Take hFc.L15.hFGF21(L98R, P171G) (Fc fusion): the EC50 (ELK-luciferase assay) turned out to be 2.5 nM and the Efficacy (ELK-luciferase assay) worked out at 76.1%.
In turn, “hFc.L15.hFGF21(L98R, P171G, 1-179) (Fc fusion)” displayed an EC50 (ELK-luciferase assay) of 7.8 nM and an Efficacy (ELK-luciferase assay) of 77.4%.
As to “hFc.L15.hFGF21(L98R, P171G, A180E) (Fc fusion)”, the EC50 (ELK-luciferase assay) came to 1.9 nM and the Efficacy (ELK-luciferase assay) turned out to be 79.6%.
The substance “hFc.L15.hFGF21(L98R, P171G, A180G) (Fc fusion)” had an EC50 (ELK-luciferase assay) of 3.25 nM and an Efficacy (ELK-luciferase assay) of 76.9%.
In turn, “hFc.L15.hFGF21(L98R, P171G, A180P) (Fc fusion)” gave an EC50 (ELK-luciferase assay) of 617 nM and an Efficacy (ELK-luciferase assay) of 77.1%.
For “hFc.L15.hFGF21(L98R, P171G, A180S) (Fc fusion)”, in that order: 2.18 nM and 84.7%.
Consider “hFc.L15.hFGF21(L98R, P171G, G182) (Fc fusion)”, for which the EC50 (ELK-luciferase assay) was 6.5 nM and the Efficacy (ELK-luciferase assay) came out at 71.1%.
“hFc.L15.hFGF21(L98R, P171G, GG182-3) (Fc fusion)” had an EC50 (ELK-luciferase assay) of 1940 nM and an Efficacy (ELK-luciferase assay) of 84.2%.
Turning to “hFc.L15.hFGF21(L98R, P171G, GGGGG182-6) (Fc fusion)”, the EC50 (ELK-luciferase assay) was 4310 nM and the Efficacy (ELK-luciferase assay) is 99.7%.
For “hFc.L15.hFGF21(L98R, P171G, P182) (Fc fusion)”, the EC50 (ELK-luciferase assay) was determined as 6.1 nM and the Efficacy (ELK-luciferase assay) was 85.9%.
With “hFc.L15.hFGF21(L98R, P171G, S181A) (Fc fusion)”, the EC50 (ELK-luciferase assay) is 2.66 nM and the Efficacy (ELK-luciferase assay) was determined as 73.5%.
“hFc.L15.hFGF21(L98R, P171G, S181G) (Fc fusion)” showed an EC50 (ELK-luciferase assay) of 3.43 nM and an Efficacy (ELK-luciferase assay) of 77.3%.
“hFc.L15.hFGF21(L98R, P171G, S181K) (Fc fusion)” had an EC50 (ELK-luciferase assay) of 130 nM and an Efficacy (ELK-luciferase assay) of 87.9%.
In turn, “hFc.L15.hFGF21(L98R, P171G, S181L) (Fc fusion)” showed an EC50 (ELK-luciferase assay) of 3.46 nM and an Efficacy (ELK-luciferase assay) of 72.6%.
With “hFc.L15.hFGF21(L98R, P171G, S181P) (Fc fusion)”, the EC50 (ELK-luciferase assay) turned out to be 33.8 nM and the Efficacy (ELK-luciferase assay) is 79.5%.
For “hFc.L15.hFGF21(L98R, P171G, S181P, P182) (Fc fusion)”, in that order: 272 nM and 69.9%.
For “hFc.L15.hFGF21(L98R, P171G, S181T) (Fc fusion)”, the EC50 (ELK-luciferase assay) turned out to be 3.07 nM and the Efficacy (ELK-luciferase assay) stood at 77.6%.
For “hFc.L15.hFGF21(L98R, P171G, Y179A) (Fc fusion)”, in that order: 43.2 nM and 79.6%.
On to “hFc.L15.hFGF21(L98R, P171G, Y179F) (Fc fusion)”, for which the EC50 (ELK-luciferase assay) amounted to 2.6 nM and the Efficacy (ELK-luciferase assay) is 78.3%.
For “hFc.L15.hFGF21(L98R, P171G, Y179G) (Fc fusion)”, in that order: 61 nM and 82.6%.
“hFc.L15.hFGF21(L98R, P171G, Y179P) (Fc fusion)”: the EC50 (ELK-luciferase assay) was 428 nM and the Efficacy (ELK-luciferase assay) worked out at 44.4%.
“hFc.L15.hFGF21(L98R, P171G, Y179S) (Fc fusion)” came in with an EC50 (ELK-luciferase assay) of 25.3 nM and an Efficacy (ELK-luciferase assay) of 74.8%.

The record behind these values is patent publication US20210317176A1.
